Tested on: MS2 coat protein
Experiment: apparent KD of MS2 coat protein; designed switch direction (-1 OFF switch, 1 ON switch): 1; higher = weaker reporter binding
How it was run: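 RNA switches sharing common flanks were transcribed by stalled E. coli RNA polymerase on Illumina chips. A doubling series of SNAP-549-labelled MS2 coat protein, from 0.7 or 1.5 nM to 3 µM, was applied in Tris-HCl pH 7.5 buffer with KCl, MgCl2, BSA, DTT, tRNA and Tween-20. Each step lasted 0.8–1.5 h at the bottom of the series and 10–20 min at the top. Normalised cluster fluorescence was curve-fitted, giving apparent KD as the per-design median over clusters.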

[1] = input ligand: microRNA oligo, concentration not stated
[2] = Eterna round: R95, input ligand: FMN 200 uM
[3] = Eterna round: R95, input ligand: microRNA oligo, concentration not stated
[4] = Eterna round: R95, input ligand: none

Sequence | apparent KD of MS2 coat protein [1] [µM] | apparent KD of MS2 coat protein (input ligand: FMN 200 uM) [µM] | apparent KD of MS2 coat protein (input ligand: none) [µM] | apparent KD of MS2 coat protein [2] [µM] | apparent KD of MS2 coat protein [3] [µM] | apparent KD of MS2 coat protein [4] [µM]
UAGUAUUAACGAGGAUAUAAUAUGUUCAAUUUUUUAUAUUGUUUACAUGAGGAUCACCCAUGUUAUUAGAAGGCGUAUGGGAUU [JR_SSNG2_Sub082] (Eterna round: R96, puzzle: Same State NG 2) | 0.0509 |  |  |  |  | 
CCAGGACAUGAGGAUCACCCAUGUGCUUAAUAUGGAGAAUCUCAGGAUAUCAUGAGGAUCACCCAUGAGAAGGGAGAUCCGAGG (Eterna round: R96, puzzle: Same State NG 3) | 0.118 | 0.144 | 0.152 |  |  | 
AACAAUCUAUCUGAGGAUAUCAUGAAAUAAACAUGAGGAUCACCCAUGUGCAGUAAAACUGCAUAUGAGAAGGCAGAUAGAUUGA [salish99_ss2_r3_039] (puzzle: Same State 2) |  |  |  | 0.0933 | 1.85 | 1.82
ACGUGGGUAUCACAGGAUAUACUCAUAACUACAUGAGGAUCACCCAUGUAGCGGUAUUCCGGUGCGUAGAAGGGUGAUGGACCAC [Same State 2 - Mod of Artece] (puzzle: Same State 2) |  |  |  | 0.0133 | 0.0116 | 0.0199
AGCCGAGACUGAGGAUAUUUUAAUCUACAUGAGGAUCACCCAUGUAACAACACGUGGUAGUGAUAGAAGAAGGCGGCUCGGCGC [Omei SS(NG)2 Cv1] (Eterna round: R96, puzzle: Same State NG 2) | 0.162 | 0.176 | 0.386 |  |  | 
UAGUACAUGCUUUUUGUCCGUCUUAGAUAACAUGAGGAUCACCCAUGUAAGGUGAAAGUUAUAUAGUUUAGGAAGAU [JR_SHM208A_Sub056] (puzzle: Sensor for hsa-mir-208a) |  |  |  | 0.309 | 0.424 | 0.331
GUGCUCGUGUGAGGAUAUGCCGCCGUUUCGGCUGCAGAAGGUGCUACGUUACAUGAGGAUCACCCAUGUCUCUGUUGUUUCGUG [salish99_SSNG1_r04_943] (Eterna round: R96, puzzle: Same State NG 1) | 0.0179 |  |  |  |  | 
GAAUAGUUGAGAGGAUAUGUAUUAUUGUAGGAUACAGAAGGUUUUAACAUGAGGAUCACCCAUGUAGGACUAUAUAUGUGAAUA [Parity 98 - Jieux - Same State NG 1] (Eterna round: R96, puzzle: Same State NG 1) | 0.0117 |  |  |  |  | 
AGUAAGAGUCAAGGAUAUGCUACCGUUUCGGUAGCAGAAGGUGAUCACAUGAGGAUCACCCAUGUAUAAAUGCGUGAGCGUGCU [JL SSNG1 3.63] (Eterna round: R96, puzzle: Same State NG 1) | 0.0282 | 0.679 | 0.059 |  |  | 
GAAAAACAUGAGGAUCACCCAUGUAGAAAUAUGGGAGGAUAUACAAAGUCGAAAGACAAAGUAGAAGGCCUAAAAG [Mat - Same State 1 - Eli mod - D2] (Eterna round: R96, puzzle: Same State 1) | 0.0968 |  |  |  |  | 
UAUUCAUUCAGAGGAUAUUGUUUAUCUCUAUUUCAAGAAGGCUGAUUUUACUACUUACUUAUGAAACAUGAGGAUCACCCAUGU [JR_SSNG1_Sub020] (Eterna round: R96, puzzle: Same State NG 1) | 0.0187 |  |  |  |  | 
ACAUUUAGCUCGUGCACAUGAGGAUCACCCAUGUUCAGUUCACAGGAUAUCUAGUCAAACGGAUCGGAGAAGGGUGGCAGGAGC [Quceon] (Eterna round: R96, puzzle: Same State NG 3) | 0.121 | 0.0399 | 0.123 |  |  | 
GCACAUGAGGAUCACCCAUGUGCGCUUGAUUGUCCAAGCGCACAGGAUAUACCUCCAAAUGGGAGGUAGAAGGGUGAAAAGAAA [Ravema] (Eterna round: R96, puzzle: Same State NG 3) | 0.393 | 2.31 | 0.347 |  |  | 
UUGCUCGUGUGAGGAUAUGCCGCCGUUUCGGCUGCAGAAGGUGCUACGUUACAUGAGGAUCACCCAUGUCUCUGUUGUUUCGUG [salish99_SSNG1_r04_941] (Eterna round: R96, puzzle: Same State NG 1) | 0.0197 | 0.0175 | 0.0211 |  |  | 
AAAGGAUGAUGUUACAUGAGGAUCACCCAUGUAGUGAUAACUAAGGAUAUCUGUUAAACAAGUUAAGAGAAGGUAGGAUCAUUA [AK SSNG3-V2-8] (Eterna round: R96, puzzle: Same State NG 3) | 0.0356 | 0.0428 | 0.0608 |  |  | 
UGUUGUUAAUUAGGAUAUGGGCACAUGAGGAUCACCCAUGUAUUGUCGAUGCUAUGUGGACACGUCUAGAAGGAAUGGCUAACA [SameState NG2 #90] (Eterna round: R96, puzzle: Same State NG 2) | 0.088 | 0.0729 | 0.112 |  |  | 
UUGAGAUGUACAGGAUAUGGUGAGGAUCACCCACUAGAAGGGUGCACAUGUGAAUCGGACAUGAGGAUCACCCAUGUAGGGCGU (Eterna round: R96, puzzle: Same State NG 1) | 0.207 | 0.187 | 0.369 |  |  | 
AUUAUUAAUGCAGGAUAUGAUUAACAUGAGGAUCACCCAUGUGGUGUUGUGAGUAAGGAGAGUGAUCAGAAGGGCAUUUUUUUA [JMF's solution 18] (Eterna round: R96, puzzle: Same State NG 2) | 0.44 | 0.653 | 0.479 |  |  | 
GAGGAACAGGCCAACAUGAGGAUCACCCAUGUCCUCGCAUUUCAGGAUAUCUGGAAGAAGAAGAAAGAGAAGGGAAGGUGAAGC [AK SSNG3-V2-34.1] (Eterna round: R96, puzzle: Same State NG 3) | 0.101 | 0.114 | 0.112 |  |  | 
ACAUGAGAUUGAGGAUAUAUUGUACCUACAUGUGACAUGAGGAUCACCCAUGUGGUAAGUAUGACAUAGAAGGCAAAGAUAUGU [Equivalance 81 - Jieux - Same State NG 2] (Eterna round: R96, puzzle: Same State NG 2) | 0.0541 | 0.0871 | 0.0744 |  |  | 
CAGCGCUGUCGAGAGGAUAUGCAGUGAUGGACAUGAGGAUCACCCAUGUUAGCGAUAGCAUUACGGUAGAAGGCUCUACAGCUGC [Soteed - 13] (puzzle: Same State 2) |  |  |  |  | 0.0164 | 
GCGAAAGCAGGAGGAUAUGCAGAGGAUCACCCUGUAGAAGGCCACAGAGGAGGAUAUGCAGAGGAUCACCCUGUAGAAGGCCAC [pwkr ssNG DX.17] (Eterna round: R96, puzzle: Same State NG 1) | 0.262 | 0.176 | 0.303 |  |  | 
AUUAUUUAUGCAGGAUAUGAUUAACAUGAGGAUCACCCAUGUGGUGUUGUGAGUAAGGAGAGUGAUCAGAAGGGCAUUUUUUUU [JMF's solution 22] (Eterna round: R96, puzzle: Same State NG 2) | 0.377 | 0.673 | 0.447 |  |  | 
UAUCCAUAGAUAGGAUAUUAGAGAACAUGAGGAUCACCCAUGUUUGGCUUGGUUUUAAGCCAAUCUAAGAAGGAUCUUGAUGAA [SameState NG2 #10] (Eterna round: R96, puzzle: Same State NG 2) | 0.0665 | 0.0221 | 0.0721 |  |  | 

From the supplement of paper PMC9170038
